Results taken from the supplement of paper PMC10126150.
± gives the standard deviation of the averaged measurements.

The sequences below were run on ATP (assay: switch fluorescence ratio, 500 uM ATP over buffer (Cy3 cluster intensity, sum of 5 cycles each) (fold (ratio)); higher = stronger signal-on switching upon ATP binding; sequences stand for … in TCGTCGGCAGCGTCAGATGTGTATAAGAGACAGTTTTTTTTTTTTTTTTTTTTTTTTT…TC). Details: aptamer strand: ATP DNA aptamer (quencher-CACCTGGGGGAGTATTGCGGAGGAAGG + anchor), 100 nM annealed; ATP concentration: 500 uM.
Summary of the method: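 For every switch-domain sequence, the fluorescence ratio is the mean of per-cluster values, each being summed target-cycle Cy3 intensity over summed buffer-cycle Cy3 intensity. Clusters outside 100-1000 RFU were excluded. On a modified Illumina MiSeq flow-cell, the Cy3-labelled switching-strand clusters were annealed to 100 nM quencher-labelled ATP aptamer, imaged in selection buffer and then after 15 min with 500 uM ATP at 22 °C. Five such cycles were run, with NaOH stripping and re-annealing between them.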
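Also: ATP exposure 15 min at 22 °C before imaging.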

Row | Sequence | switch fluorescence ratio
1 | CGTATAGGGA | 1.015 ± 0.01
2 | TAAACACAGG | 1.16 ± 0.044
3 | CACAAAAGTG | 1.02 ± 0.02
4 | GGGTGGGCAT | 1.03 ± 0.013
5 | CGGGTACCGC | 1.05 ± 0.053
6 | GGCTTTGGAC | 0.994 ± 0.055
7 | AGGTTTTTCT | 0.987 ± 0.024
8 | ACTGGCGTGC | 1.04 ± 0.07
9 | AGTGACGGTT | 0.977 ± 0.021
10 | TTTAATTTAG | 1.02 ± 0.024
11 | GGGGTTGGCG | 1.117 ± 0.0064
12 | TTGGGTGAGC | 0.994 ± 0.024
13 | TTTGACGGTT | 1.03 ± 0.015
14 | AAGCATCATA | 0.988 ± 0.021
15 | CCATGTGTAG | 1 ± 0.017
16 | TACTTATGTG | 1.01 ± 0.02
17 | TGCACCGGGG | 1.02 ± 0.016
18 | TAAGAGGATC | 1.0083 ± 6.4e-05
19 | GTGGCTATCG | 0.993 ± 0.025
20 | GTTTGAGGCT | 1 ± 0.046
21 | TACACGCCTT | 1.05 ± 0.015
22 | TTCGCGATGT | 1.13 ± 0.11
23 | CAGCCGCTGT | 1.79 ± 0.026
24 | TTGCTTGCGG | 0.991 ± 0.041
25 | ATCGGTATTT | 1.19 ± 0.39

Row | Sequence | switch fluorescence ratio
26 | TTGTATCAGT | 1.01 ± 0.024
27 | TGCATGTTGG | 0.9937 ± 0.0017
28 | CGATATCAAT | 1.061 ± 0.0062
29 | CTGGGGGATA | 1.02 ± 0.036
30 | TATAAAAAAA | 1.02 ± 0.051
31 | TGGTGTTGTC | 1.03 ± 0.033
32 | TGGAATTACT | 1.26 ± 0.36
33 | TTTCTGGCAA | 1.32 ± 0.38
34 | AGTTTATTAC | 1.47 ± 0.68
35 | TCAGAATGGG | 0.9833 ± 0.0047
36 | AAAGTTGTCG | 0.969 ± 0.051
37 | GTTCTCTGGG | 0.987 ± 0.034
38 | GTCCCGACTT | 1.01 ± 0.013
39 | TTGTTATTTT | 1 ± 0.03
40 | CGAGGGGATG | 1.006 ± 0.0088
41 | GGTTGTTGAG | 0.987 ± 0.052
42 | ATTGGAGTAT | 0.9776 ± 0.0089
43 | AAGGGCTCTG | 1.01 ± 0.046
44 | AGTTATTTCG | 0.993 ± 0.018
45 | GTGAAAGTTT | 0.998 ± 0.062
46 | TAGTGTAGGT | 1.03 ± 0.02
47 | TTTCCTGGCT | 1.02 ± 0.032
48 | TGTTAATAGC | 1.03 ± 0.032
49 | TCACATTAAG | 1.01 ± 0.037
50 | TATTAACGTA | 1.08 ± 0.022

Row | Sequence | switch fluorescence ratio
51 | GACTGCTTGG | 0.9518 ± 0.0063
52 | GTTTAAATCC | 0.989 ± 0.05
53 | ACTGGCATCC | 1.08 ± 0.029
54 | AAGGTCGGTA | 1.001 ± 0.0024
55 | TGAGTGCTGT | 0.968 ± 0.02
56 | AGGCACCAAC | 1.16 ± 0.044
57 | GCGGGCCCTT | 1.01 ± 0.012
58 | CGGATGAATG | 0.999 ± 0.029
59 | ACAGTAATGG | 1.05 ± 0.041
60 | TATTGCGGGG | 1.2 ± 0.42
61 | TGTTTTTTTA | 0.979 ± 0.024
62 | GTGCCAGGAT | 1.03 ± 0.052
63 | GGCTACTGGA | 1.03 ± 0.095
64 | TTTGATACGG | 1 ± 0.028
65 | GTCACACTAT | 1.02 ± 0.034
66 | TAGATGGGGT | 1.01 ± 0.031
67 | ATACCTAGCT | 1.05 ± 0.019
68 | TCCGGGGGAT | 1.32 ± 0.38
69 | ATTGGCTGAC | 1.13 ± 0.029
70 | AATATTGGGG | 0.981 ± 0.029
71 | TTTGAATTAA | 1.01 ± 0.049
72 | TAGTTGACTG | 1.04 ± 0.072
73 | TTGGTACGGA | 0.986 ± 0.019
74 | CGGGTTTGCG | 0.992 ± 0.036
75 | TTTGTGTTAG | 0.9983 ± 0.0082

Row | Sequence | switch fluorescence ratio
76 | GGGTCTGTTG | 0.975 ± 0.013
77 | GAAACTTGCA | 1.075 ± 0.0066
78 | AAGTTGCGTT | 1.01 ± 0.015
79 | ATGATTTGAG | 0.9905 ± 0.0022
80 | TGGGTGGGGA | 1 ± 0.036
81 | TCGTTTGGAG | 0.998 ± 0.022
82 | CAGTGAGGGG | 0.984 ± 0.029
83 | ATCTGGGTTA | 0.993 ± 0.013
84 | CTAACAGCGA | 1.297 ± 0.0027
85 | CTGAAGGATT | 1.01 ± 0.011
86 | CGGGGGCTT | 1.002 ± 0.0044
87 | GGGGTTGGTT | 0.995 ± 0.044
88 | AGAATTAGAG | 0.969 ± 0.054
89 | AATCCAGGGC | 1.05 ± 0.056
90 | CAGTAATTAT | 0.997 ± 0.02
91 | TTATAATAG | 1.039 ± 0.0073
92 | CCGGAGGGAG | 1.0201 ± 0.0006
93 | TGACGGGGTA | 1.04 ± 0.12
94 | TACGAAATTG | 1.06 ± 0.049
95 | TCATCAGTCT | 0.995 ± 0.039
96 | TTTTAAAGAT | 0.977 ± 0.021
97 | ACAGGGAGTT | 0.9911 ± 0.0078
98 | CGCTACTTGA | 1.027 ± 0.0082
99 | AAATGGAGAC | 1.01 ± 0.034
100 | GGGAGGGCA | 1 ± 0.011
